According to patent publication US20050025821A1, “Lipid-comprising drug delivery complexes and methods for their production” (priority 2001, published 2005):
Starred links: 1 amine or outer side, 2 acyl side, 3 side chain; linkers in the order of their positions; H or OH if unused. Suc = O=C(CCC(=O)[*:2])[*:1]

How the values were obtained:
[1] = Particle sizing (mean diameter, polydispersity; Coulter N4Plus, unimodal mode); format: physicochemical; settings: condensed DNA 2:1 μg:μg, DNA 0.143 mg/ml, second experiment (Table 18)
Protocol: The liposomes were prepared as follows: 6000 nmol of 1,2-dioleoyl-3-trimethylammonium-propane (DOTAP) (Avanti Polar Lipid Inc., Alabaster, Ala.) at 20 mg/ml in chloroform and 6000 nmol of cholesterol (Avanti Polar Lipid Inc., Alabaster, Ala.), also prepared at 20 mg/ml in chloroform (J. T. Baker, Phillipsburg N.J.), were mixed in a borosilicate tube and dried for 1 hr under nitrogen at 4 liters per minute (LPM) using a N-EVAP™ (Organomation, Berlin, Mass.). The resulting lipid films were hydrated in 2 ml of 5% USP dextrose (Abbott Laboratories, North Chicago, Ill.) to achieve a final lipid concentration of 6 mM. […]
LPDs were prepared as described by Li, S., et al., Gene Therapy, 1998. […] The surface zeta potential was determined using a Malvern zeta sizer (Malvern Instrument Inc, Sacramento, Calif.).
DLPDs were generated by a modified version of the method previously described by Harvie, P., F. M. Wong, and M. B. Bally, Biophys J, 1998. […] Particle sizes were assessed as described above and typically were in the 150-300 nm range.
Typically, 0.15 ml of mixed micelles prepared as describe above were mixed with 350 μl of DNA pre-compacted with protamine at a 2:1 protamine:DNA ratio under mild vortex agitation (speed 3). […] The surface zeta-potential was determined using a Malvern zeta sizer (Malvern Instrument Inc, Sacramento, Calif.). […]

KB cells = test: In vitro transfection (luciferase expression); format: cell-based; settings: 1 μg DNA/well
Protocol: The following day, the media was removed and replaced with 500 μl of fresh serum-free media.

[2] = Surface zeta potential (Malvern zeta sizer); format: physicochemical; settings: 10 mol % in LPD, 5% dextrose USP pH 5.0
Protocol: LPDs were prepared as described by Li, S., et al., Gene Therapy, 1998. 5(7): p. 930-937. Lipid:protamine:DNA ratios of 12 nmol:0.9 μg:1 μg, 12 nmol:0.97 μg:1 μg, and 12 nmol:1 μg:1 μg were used for these experiments, as indicated. As a typical example, 150 μl of liposomes at 6mM were mixed with 197 μl of 5% dextrose USP followed by the addition of 153 μl of pre-compacted DNA at 490 μg/ml. This operation was performed under moderate vortex agitation (speed #3), and the resulting LPD solution contained 150 μg DNA/ml. […] The surface zeta potential was determined using a Malvern zeta sizer (Malvern Instrument Inc, Sacramento, Calif.).
Typically, 0.15 ml of mixed micelles prepared as describe above were mixed with 350 μl of DNA pre-compacted with protamine at a 2:1 protamine:DNA ratio under mild vortex agitation (speed 3). Particles formed spontaneously, i.e. solution became cloudy. […] Particle sizes were assessed as described above and typically were in the 100-200 nm range as determined using a N4Plus coulter (Beckman Coulter, Miami, Fla.) sizer in unimodal mode. The surface zeta-potential was determined using a Malvern zeta sizer (Malvern Instrument Inc, Sacramento, Calif.). […]
PPAA polymer was supplied by Dr. Allan Hoffman's laboratory (University of Washington, Seattle, Wash.). […] The surface zeta potential was determined using a Malvern zeta sizer (Malvern Instrument Inc, Sacramento, Calif). […]

Row | Substance | size (nm) [1] [nm] | increase in transfection activity when formulated with CHEMS:DOPE compared to peptide-compacted DNA alone (KB cells) | decrease in the zeta-potential versus conventional LPD [2] [mV]
1 | KHKHKHKHKGKHKHKHKHK | 25 | No change in the transfection activity | 
2 | DSPE-PEG5K-succinyl-ACDCRGDCFCG-COOH ({DSPE-PEG5K-Suc}-ACDCRGDCFCG-OH; cysteine pairing not given here) [DSPE-PEG5K-RGD, targeting factor-pegylated lipid conjugate] |  |  | 15
